Assay results taken from paper PMC10805701, “Structure of mycobacterial ergothioneine-biosynthesis C-S lyase EgtE” (The Journal of Biological Chemistry, 2023).

T1: MsEgtE (Mycolicibacterium smegmatis, UniProt A0R5M7)
T1 construct: gene egtE; full-length ORF, pET28a N-terminal hexa-histidine tag, E. coli BL21 (DE3); homodimer (~76 kDa by SEC, predicted 78 kDa)
T1 sequence (A0R5M7 1-371): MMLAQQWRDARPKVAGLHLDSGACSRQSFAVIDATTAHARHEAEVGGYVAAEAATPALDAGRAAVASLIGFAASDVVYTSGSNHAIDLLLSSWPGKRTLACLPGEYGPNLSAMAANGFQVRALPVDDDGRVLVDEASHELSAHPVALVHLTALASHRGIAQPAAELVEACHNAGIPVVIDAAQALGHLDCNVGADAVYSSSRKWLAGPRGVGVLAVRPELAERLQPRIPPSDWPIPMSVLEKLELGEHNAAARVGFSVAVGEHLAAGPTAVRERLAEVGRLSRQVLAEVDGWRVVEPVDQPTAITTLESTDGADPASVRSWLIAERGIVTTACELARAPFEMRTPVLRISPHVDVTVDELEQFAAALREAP


What was measured:
[1] = target: T1, MsEgtE; assay: X-ray crystal structure, […] Å; format: binding; conditions: active site of MsEgtE-PLP; from soaked sulfoxide 4 (10 mM)
[2] = target: T2, MsEgtE (Mycolicibacterium smegmatis, UniProt A0R5M7, Y48A); assay: isothermal titration calorimetry, single injection; format: binding; conditions: 25 °C; 1 mM sulfoxide 4 injected into 20 μM enzyme
T2 construct: gene egtE; full-length ORF, pET28a N-terminal hexa-histidine tag, E. coli BL21 (DE3); homodimer (~76 kDa by SEC, predicted 78 kDa)

[3] = substrate: C[N+](C)(C)[C@@H](Cc1cnc([S+]([O-])C[C@H](N)C(=O)O)[nH]1)C(=O)[O-]; assay: purified protein; format: biochemical, Mycolicibacterium smegmatis; conditions: 50 mM KPi pH 8.0, 25 °C, PLP-loaded enzyme, 1 mM DTT, 0.13 mM NADH
[4] = target: the molecule itself; assay: crystal structure; MsEgtE-PLP crystal, 2.8 Å, two molecules per asymmetric unit; sitting drop at 16 °C, 0.1 M HEPES-Na pH 7.5, 1 M NaCl, 0.1 M LiSO4, 10% PEG1000
[5] = target: the molecule itself; assay: crystal structure; MsEgtE-PLP binding pyruvate crystal, 2.35 Å, short soak in sulfoxide 4; 0.1 M citric acid pH 6.5, 15% PEG8000, 15% glycol

T2 sequence (A0R5M7 whole entry Y48A): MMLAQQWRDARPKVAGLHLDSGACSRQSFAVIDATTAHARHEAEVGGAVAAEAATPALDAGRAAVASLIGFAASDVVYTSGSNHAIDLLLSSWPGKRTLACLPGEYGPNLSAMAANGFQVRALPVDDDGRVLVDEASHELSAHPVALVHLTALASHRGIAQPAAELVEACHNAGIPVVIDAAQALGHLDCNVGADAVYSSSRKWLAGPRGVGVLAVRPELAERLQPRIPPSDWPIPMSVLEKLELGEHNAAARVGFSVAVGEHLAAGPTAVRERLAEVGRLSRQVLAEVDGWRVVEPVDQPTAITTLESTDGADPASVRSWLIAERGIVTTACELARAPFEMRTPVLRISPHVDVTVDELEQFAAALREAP

Row | Molecule | Km [3] | kcat [3] | also measured
1 | CC(=O)C(=O)O [pyruvate] |  |  | X-ray crystal structure, 2.35 Å [1]: pyruvate binds in the deep crevice of the active center
2 | C[N+](C)(C)[C@@H](Cc1cnc([S+]([O-])C[C@H](N)C(=O)O)[nH]1)C(=O)[O-] (stereo partly drawn) [compound 4, sulfoxide 4] |  |  | isothermal titration calorimetry, single injection [2]: Y48A mutant still retains a certain level of substrate binding capability
3 | MsEgtE (Mycolicibacterium smegmatis MC2 155) (protein, full-length ORF, pET28a N-terminal hexa-histidine tag, E. coli BL21 (DE3); homodimer (~76 kDa by SEC, predicted 78 kDa)) MMLAQQWRDARPKVAGLHLDSGACSRQSFAVIDATTAHARHEAEVGGYVAAEAATPALDAGRAAVASLIGFAASDVVYTSGSNHAIDLLLSSWPGKRTLACLPGEYGPNLSAMAANGFQVRALPVDDDGRVLVDEASHELSAHPVALVHLTALASHRGIAQPAAELVEACHNAGIPVVIDAAQALGHLDCNVGADAVYSSSRKWLAGPRGVGVLAVRPELAERLQPRIPPSDWPIPMSVLEKLELGEHNAAARVGFSVAVGEHLAAGPTAVRERLAEVGRLSRQVLAEVDGWRVVEPVDQPTAITTLESTDGADPASVRSWLIAERGIVTTACELARAPFEMRTPVLRISPHVDVTVDELEQFAAALREAP | 516.0 ± 122.1 µM | 2.08 ± 0.25 s⁻¹ | 
4 | MsEgtE (Mycolicibacterium smegmatis MC2 155; Y106F) (protein, full-length ORF, pET28a N-terminal hexa-histidine tag, E. coli BL21 (DE3); homodimer (~76 kDa by SEC, predicted 78 kDa)) MMLAQQWRDARPKVAGLHLDSGACSRQSFAVIDATTAHARHEAEVGGYVAAEAATPALDAGRAAVASLIGFAASDVVYTSGSNHAIDLLLSSWPGKRTLACLPGEFGPNLSAMAANGFQVRALPVDDDGRVLVDEASHELSAHPVALVHLTALASHRGIAQPAAELVEACHNAGIPVVIDAAQALGHLDCNVGADAVYSSSRKWLAGPRGVGVLAVRPELAERLQPRIPPSDWPIPMSVLEKLELGEHNAAARVGFSVAVGEHLAAGPTAVRERLAEVGRLSRQVLAEVDGWRVVEPVDQPTAITTLESTDGADPASVRSWLIAERGIVTTACELARAPFEMRTPVLRISPHVDVTVDELEQFAAALREAP | 52.1 ± 13.1 µM | 0.32 ± 0.02 s⁻¹ | 
5 | MsEgtE (Mycolicibacterium smegmatis MC2 155; Q183A) (protein, full-length ORF, pET28a N-terminal hexa-histidine tag, E. coli BL21 (DE3); homodimer (~76 kDa by SEC, predicted 78 kDa)) MMLAQQWRDARPKVAGLHLDSGACSRQSFAVIDATTAHARHEAEVGGYVAAEAATPALDAGRAAVASLIGFAASDVVYTSGSNHAIDLLLSSWPGKRTLACLPGEYGPNLSAMAANGFQVRALPVDDDGRVLVDEASHELSAHPVALVHLTALASHRGIAQPAAELVEACHNAGIPVVIDAAAALGHLDCNVGADAVYSSSRKWLAGPRGVGVLAVRPELAERLQPRIPPSDWPIPMSVLEKLELGEHNAAARVGFSVAVGEHLAAGPTAVRERLAEVGRLSRQVLAEVDGWRVVEPVDQPTAITTLESTDGADPASVRSWLIAERGIVTTACELARAPFEMRTPVLRISPHVDVTVDELEQFAAALREAP | 679.7 ± 235.0 µM | 0.23 ± 0.04 s⁻¹ | 
6 | MsEgtE (Mycolicibacterium smegmatis MC2 155; R202K) (protein, full-length ORF, pET28a N-terminal hexa-histidine tag, E. coli BL21 (DE3); homodimer (~76 kDa by SEC, predicted 78 kDa)) MMLAQQWRDARPKVAGLHLDSGACSRQSFAVIDATTAHARHEAEVGGYVAAEAATPALDAGRAAVASLIGFAASDVVYTSGSNHAIDLLLSSWPGKRTLACLPGEYGPNLSAMAANGFQVRALPVDDDGRVLVDEASHELSAHPVALVHLTALASHRGIAQPAAELVEACHNAGIPVVIDAAQALGHLDCNVGADAVYSSSKKWLAGPRGVGVLAVRPELAERLQPRIPPSDWPIPMSVLEKLELGEHNAAARVGFSVAVGEHLAAGPTAVRERLAEVGRLSRQVLAEVDGWRVVEPVDQPTAITTLESTDGADPASVRSWLIAERGIVTTACELARAPFEMRTPVLRISPHVDVTVDELEQFAAALREAP | 58.5 ± 8.7 µM | 0.03 ± 0.01 s⁻¹ | 
7 | ergothioneine-biosynthesis C-S lyase EgtE from Mycobacterium smegmatis (enzyme, M. smegmatis strain mc2155, UniProt A0R5M7 1-371, looked up, PLP covalently linked to Lys203 via a Schiff base linkage (monomer 1; bond broken in monomer 2 of the MsEgtE-PLP crystal), EgtE (PLP-dependent C-S lyase), Mycobacterium smegmatis strain mc2155, full-length ORF of msmeg_6246 in pET28a; residues 1-371 described in the structure; Homodimer by crystal structure and size exclusion chromatography; also called MsEgtE; MsEgtE-PLP) MMLAQQWRDARPKVAGLHLDSGACSRQSFAVIDATTAHARHEAEVGGYVAAEAATPALDAGRAAVASLIGFAASDVVYTSGSNHAIDLLLSSWPGKRTLACLPGEYGPNLSAMAANGFQVRALPVDDDGRVLVDEASHELSAHPVALVHLTALASHRGIAQPAAELVEACHNAGIPVVIDAAQALGHLDCNVGADAVYSSSRKWLAGPRGVGVLAVRPELAERLQPRIPPSDWPIPMSVLEKLELGEHNAAARVGFSVAVGEHLAAGPTAVRERLAEVGRLSRQVLAEVDGWRVVEPVDQPTAITTLESTDGADPASVRSWLIAERGIVTTACELARAPFEMRTPVLRISPHVDVTVDELEQFAAALREAP |  |  | stoichiometry N [4]: 2; stoichiometry N [5]: 4
